Experimental findings from publication PMC7054286, “Functional Characterization of the Arabidopsis Abscisic Acid Transporters NPF4.5 and NPF4.6 in Xenopus Oocytes” (Frontiers in Plant Science, 2020) are described below.

Substrate in this data set: CC1=CC(=O)CC(C)(C)[C@@]1(O)/C=C/C(C)=C\C(=O)O
As to the kind of experiment: cells, lysate or membranes. In kind it is cell-based, Arabidopsis thaliana. As to conditions: pH 6.0, ND96, 0-5 μM ABA, labelled compound (10% 3H-ABA, 90% cold), apparent Km.

B1: NPF4.6 (Arabidopsis thaliana) (protein)
chain: MEVEEEVSRWEGYADWRNRAAVKGRHGGMLAASFVLVVEILENLAYLANASNLVLYLREYMHMSPSKSANDVTNFMGTAFLLALLGGFLSDAFFSTFQIFLISASIEFLGLIILTIQARTPSLMPPSCDSPTCEEVSGSKAAMLFVGLYLVALGVGGIKGSLASHGAEQFDESTPKGRKQRSTFFNYFVFCLACGALVAVTFVVWLEDNKGWEWGFGVSTIAIFVSILIFLSGSRFYRNKIPCGSPLTTILKVLLAASVKCCSSGSSSNAVASMSVSPSNHCVSKGKKEVESQGELEKPRQEEALPPRAQLTNSLKVLNGAADEKPVHRLLECTVQQVEDVKIVLKMLPIFACTIMLNCCLAQLSTFSVQQAASMNTKIGSLKIPPASLPIFPVVFIMILAPIYDHLIIPFARKATKTETGVTHLQRIGVGLVLSILAMAVAALVEIKRKGVAKDSGLLDSKETLPVTFLWIALQYLFLGSADLFTLAGLLEYFFTEAPSSMRSLATSLSWASLAMGYYLSSVIVSIVNSITGSSGNTPWLRGKSINRYKLDYFYWLMCVLSAANFLHYLFWAMRYKYRSTGSRS
notes: full CDS (pDONR207) in pGEM-GWC; cRNA-injected Xenopus oocytes; tag not given
Broadly, the Km is the substrate concentration at which the rate is half of its maximum. For the protein B1, the Km came out at 0.452 ± 0.025 µM.

B2: NPF4.5 (Arabidopsis thaliana) (protein)
chain: MEVEMHGDVSKWEGYADWRNKAALRGRHGGMLAASFVLAVEILENLAFLANASNLVLYLKNFMHMSLARSSSEVTTFMATAFLLALLGGFLADAFFSTFVIFLISASIEFLGLILLTIQARRPSLMPPPCKSSAALRCEVVGGSKAAFLFVGLYLVSLGIGGIKGSLPSHGAEQFDEGTPKGRKQRSTFFNYYVFCLSCGALVAVTFVVWIEDNKGWEWGFGVSTISIFLSILVFLLGSRFYKNKIPRGSPLTTIFKVLLAASIVSCSSKTSSNHFTSREVQSEHEEKTPSQSLTNSLTCLNKAIEGKTHHIWLECTVQQVEDVKIVLKMLPIFGCTIMLNCCLAQLSTYSVHQAATMNRKIVNFNVPSASLPVFPVVFMLILAPTYDHLIIPFARKVTKSEIGITHLQRIGVGLVLSIVAMAVAALVELKRKQVAREAGLLDSEETLPITFLWIALQYLFLGSADLFTLAGLLEFFFTEAPSSMRSLATSLSWASLALGYYLSSVMVPIVNRVTKSAGQSPWLGEKLNRNRLDLFYWLMCVLSVVNFLHYLFWAKRYKYISTGSIS
notes: full CDS (ABRC, pENTR223) in pGEM-GWC; cRNA-injected Xenopus oocytes; tag not given
Regarding B2, the Km was 0.522 ± 0.041 µM.
